Our source for the binding signal values is article PMC6792138.

The subject of the series is PthA4AT (7.5-repeat TAL effector) (Xanthomonas citri ssp. citri variant AT). The experiment in a line: PBM. As to conditions: not stated; PBM performed as in Godoy et al. 2011.
The substance PBM probes with TATAACCTT showed a binding signal of 0.462 E-score.
Consider PBM probes with TATTACCCC, for which the binding signal stood at 0.458 E-score.
In the case of PBM probes with TTATTACCT, the binding signal turned out to be 0.476 E-score.
The substance PBM probes with ATATCACCT showed a binding signal of 0.46 E-score.
Then PBM probes with TTATTACCC, with 0.46 E-score; and PBM probes with ATTATTACC, with 0.456 E-score; and PBM probes with TATTACCTT, with 0.481 E-score.
For the substance PBM probes with TATTACCTC, the binding signal was 0.466 E-score.
For PBM probes with TATCACCTT, the binding signal turned out to be 0.476 E-score.
PBM probes with TATCGCCTT displayed a binding signal of 0.454 E-score.
For PBM probes with TTATCACCT the value was 0.464 E-score.
